This data set is described as follows: soluble on expression in E. coli; label from the status in PepcDB or PDB records.
As to “MGNYFPYAFEDKRYHTWNYHLKNKFGQKIFKVALDGGFDCPNRDGTVAHGGCTFCSAAGSGDFAGNRAEPIEVQFKKIKERMHEKWSEGQYIAYFQAFTNTHAPVEVLKEKYEPVLKEDGVVGLSIATRPDCLPDDVVEYLAELNQRTYLWVELGLQTVHQSTSDLINRAHDMQTYYDGVTKLRKHNINVCTHIINGLPGENYDMMMETAKEVAQMDVQGIKIHLLHLLKGTPMVKQYEKGMLEFMSQQDYTNLVCDQLEVLPPEMIVHRITGDGPIDLMVGPMWSVNKWEVLNEIDNELARRNSYQGKMNKQSIQS”, the “soluble on expression in E. coli” value was “not soluble”. As for “MGSDKIHHHHHHMLRLSEIKLPLDHPPEAITTAILQKLKIQADELLGYEIFKRSYDARKKDAIVWVYILDLKVKNEAQLLKRFQKDPHVNPTPDMSYRVVAQAPEGLTERPVVIGAGPCGMFAALTLAQMGFRPILFERGKTVRDRTADTFAFWKKRGEFNPESNAQFGEGGAGTFSDGKLYSQVRDPQYYGRKVLTELVNSGANPEILYVNKPHIGTFKLVGVVQQMRARIEALGGEIHFQSRVESLHIEDRQVRGLRLTNGDYIPARHVVLAIGHSARDTFQMLFDQGVYIEAKPFSIGFRIEHPQPLIDRARFGPFAGHKSLGAADYKLVHHCQNGRTVYSFCMCPGGLVVAATSEPGRVVTNGMSQYSRNERNANSGIVVGITPEDYPGHPLAGIDLQRRLEAKAFELGGGTYEAPGQLVGDFLAGRPSQHLGTVRPSYAPGVHLTDLSESLPDYAIAAIREALPAFNRQIQGFALPDAMLTGVETRTSSPVRIKRGEDFQSLNTTGLFPAGEGAGYAGGILSAGIDGIKVAEAVALAMLRSQPQTV”, the entry is “not soluble”. In the case of “MSRVPRTFAGWTEQMSSSGKMYYYNKKTEISQWDKPAEWPAEGGSAERDKPKGGVNEKPRFAEDRYNEYIGQLSSSSSCFWRQIGIFSLSSSSKYYLCASRFLPLSHSLLQFLREIRRRL”, the “soluble on expression in E. coli” value is reported as “not soluble”. As for “MKYKILLKGKQYFATINLFDGRIAMDVQVQFMAELSQLIDKLSFLSRDQLKIALKGYKPAEVHTIEFIGEHSETNVTAIASALYVTRGAVSKITKRLISRGLIVRYQKPDNQKEVYFKLTAQGQEVFEIHKKFTNYFMQRDEPIFRDSPDAVATTLAFLHQYNAFLDQKLTIKK”, the entry is “not soluble”; as for “MATRNEEILRKPDWLKIKLNTNDNYTGLKKMMREKNLHTVCEEAKCPNIHECWGARRTATFMILGAVCTRACRFCAVKTGLPNELDLNEPERVAESVELMNLKHVVITAVARDDLRDQGSNVYAETVRKVRERNPFTTIEILPSDMGGDYEALETLMASRPDILNHNIETVRRLTPRVRARATYDRTLQFLRRSKELQPDIPTKSSLMVGLGETMEEIYETMDDLRANDVDILTIGQYLQPSRKHLKVEKYYTPLEFGKMRKIAMEKGFKHCQAGPLVRSSYHADEQVNEAAKEKQRQGEEQLN”, “not soluble”. As for “MIMSEMITRQQVTSGETIHVRTDPTACIGSHPNCRMFIDSLTIAGEKLDKNIVAIDGGEDVTKADSATAAASVIRMSITPGSINPTISITLGVLIKSNVRTKIEEKVSSILQASATDMKIKLGNSNKKQEYKTDEAWGIMIDLSNLELYPISAKAFSISIEPTELMGVSKDGMRYHIISIDGLTTSQGSLPVCCAASTDKGVAKIGYIAAA”, the entry is “soluble”. As for “MGSDKIHHHHHHMKQMNVVLIGGGTGLSVLARGLREFPIDITAIVTVADNGGSTGKIRDVMDIPAPGDIRNVIAALSDSESILTQLFQYRFGENQVDGHSLGNLVIAGMTNITNDFGHAIKELSKVLNIKGQVIPSTNASVQLNAVMEDGEIVHGETNIPKTHKKIDRVFLEPSDVEPMNEAIEALEQADLIVLGPGSLYTSVISNLCVKGISEALLRTSAPKLYVSNVMTQPGETDNYDVKEHIDALTRQVGEPFIDFVICSSESYSKDVLQRYEEKNSKPVAVHKEQLKDSGIRVLTASNLVEISNEHYVRHNTKVLSKMIYELALELTSTIRFTPSDKKK”, the entry is “not soluble”; as for “MSDAQGNTLTEEELAMLRAGDEENDNTDTIMVIRVPNDGSSATAVSIPRDTYIHDDDYGNMKINGVYGAYKDARRAELMEQGFTNESELETRAKDAGREGLIDAVSDLTGITVDHYAEVGLLGFVLLTDAVGGVEVCLNNAVDEPLSGANFPAGRQTLGGSDALSYVRQRHDLPRGDLDRIVRQQSYMASLVNQVLSSGTLTNPAKLSALADAVTRSVVIDEGWEIMSFATQLQNLAGGNVTFATIPVTSIDGTGDYGESVVTIDVNQVHAFFQEALGEAEPAPEDGSDDQSADQAPDLSEVEVHVLNASYVEGLANGIAAQLQELGYSIAETGNAAEGLYYESQILAAEEDSAKALAISEALGGLPIVANSSLDDNTVIVVSAGDYAGPTAEANALEHHHHHH”, “soluble”; as for “MKHTLPDLPFDYADLEPVISHEIMQLHHQKHHATYVNNLNQIEEKLHEAVSKGNLKEAIALQPALKFNGGGHINHSIFWTNLAKDGGEPSKELMDTIKRDFGSLDNLQKRLSDITIAVQGSGWGWLGYCKKDKILKIATCANQDPLEGMVPLFGIDVWEHAYYLQYKNVRPDYVHAIWKIANWKNISERFANARQ”, “soluble”. With “MRPEERRRHILELLRQRERISVDELARTLSTSQETIRRDLAALAEQGLVSKFHGGAALPPSGEHENAFQTRMNEHAQEKRAVARYAAGLFGPGDSIFIDTGTTTLLFARELARQSHLTVITNSLLIAGSVGASGNRAFMIGGEYRPESEQNVGALAIEQIARFNAEHAVITVGALNGDGAMDFSIEEAEIARAMIAQARQLTVIADSSKLGRRALFQVFPLSRINRLVVDRKPTGELWEALQQARVEVHEAPLRTPQALEHHHHHH”, the “soluble on expression in E. coli” value was “not soluble”. As for “MKLASPKPFTFEGGDRAVLLLHGFTGNSADVRMLGRFLEKKGYTCHAPIYKGHGVPPEELVHTGPEDWWQDVTEAYQLLKDKGFEKIAVVGLSLGGVFSLKLGYTVPVLGVVPMCAPMYIKSEETMYQGILAYAREYKKREQKSPEQIEQEMLEFQKTPMNTLKALQQLIADVRNNVDMIYVPTFVVQARHDEMINTDSANIIYNGVESTLKDIKWYEDSTHVITLDKQRDELHEDVYNFLEQLDW”, the entry is “not soluble”; as for “MGSDKIHHHHHHMVKLPPLSLYIHIPWCVQKCPYCDFNSHALKGEVPHDDYVQHLLNDLDNDVAYAQGREVKTIFIGGGTPSLLSGPAMQTLLDGVRARLPLAADAEITMEANPGTVEADRFVDYQRAGVNRISIGVQSFSEEKLKRLGRIHGPQEAKRAAKLASGLGLRSFNLDLMHGLPDQSLEEALGDLRQAIELNPPHLSWYQLTIEPNTLFGSRPPVLPDDDALWDIFEQGHQLLTAAGYQQYETSAYAKPGYQCQHNLNYWRFGDYIGIGCGAHGKVTFPDGRILRTTKTRHPRGFMQGRYLESQRDVEATDKPFEFFMNRFRLLEAAPRVEFIAYTGLCEDVIRPQLDEAIAQGYLTECADYWQITEHGKLFLNSLLELFLAE”, “not soluble”.

With “MRVAIALAKDDATRVYPGPFGHAPRYAIYEAGPSGELVLLEIRENPYAKAHGEEKHAKMRELLRDVDLKVGARFGHKGSLGAFPLADRVEVGPVSLEEALARLKERSSA”, the “soluble on expression in E. coli” value is “soluble”. As for “MGSDKIHHHHHHMHIAPHDNQNKPIVDAEHDLVPLNYFNIVKLRRGEVFEYAVPGYETCVVPATGTVDIDVEGAIYPDLGNRTEDVWDGEPEGVYVPVGAKVRITCKTDVTETFIAGAKYDKVLEPFDVRADALDVVQYGSDDTKTHRKIKHILGANHHDKVGRLLVSELYTVGEGGWSGFPSHKHDTDRLPDETRHDETYNFRFKPNYGSGVQMLQREDNQPGDAYHIMDGSTVLIDKGYHPCAVLPGYQMYYFTILGGLSQRSLKQYFQPTHAEQLHTIPGIMDMVAKFK”, the entry is “not soluble”. As for “MSLRLQFQLKVDGLEDESLVVRGFEGQESLSDSVWRCEPCYGFRYQVDLASALSNLTAEQFVDQTAHLTILRDGQVVQQINGIVRQLSKGDTGHRHTFYSLTLVPALERLSLRSNSRIFQQQSVPEIISILLQEMGIEDYAFALKRECAQREFCVQYRETDLQFLHRIAAEEGLVYSHLHEAQKHTLLFTDSSDSQPKLAKPVPYNALAGGEINLPYVVDLQFKTTAQVSHTELKDYSFKKPAYGFTQRTQGKDIAYQQPNYEHFDAPGRYKDDANGKAFSQIRLEYLRRDALLADAKSDEPLLLAGVRFDLQDHLDHAMNRDWLVVQANHQGTQPQALQEEGGSGATTYSNQLKLIPAHITWRARPCAKPQVDGPMIATVVGPQGEEIYCDNFGRVKVHFPWDRYSSSNEKSSCWVRVAQEWAGSQYGSMAIPRVGHEVIVSFLNGDPDQPIITGRTYHATNTAPYALPDHKTKTVLRTETEGHHHHHH”, the entry is “soluble”.

Consider “MGSDKIHHHHHHMKQLPLDIIPPPPTLSNFVTGRNAELLQTLDNLLMMRKHERFVYIWGGTGCGKSHLLQGVASACKRNDMNTLYFACGERTSFANGSEADCVMVDDVDRLGADAQIGLFHLYNRIRDEGQAFLLVSGSVAPTQLKLRADLLTRLAWGLVYEVHELTDEEKMEAMKSHASSRGLALPQEVCDYLLRHERRDLTSLMAKLNALDKYSLASHRKITVPLVRELLQAAS”, for which the “soluble on expression in E. coli” value was “not soluble”. Turning to “MHVTLVEINVHEDKVDEFIEVFRQNHLGSVQEEGNLRFDVLQDPEVNSRFYIYEAYKDEDAVAFHKTTPHYKTCVAKLESLMTGPRKKRLFNGLMP”, the “soluble on expression in E. coli” value is listed as “soluble”. As for “MNIVAKPTSFISGAVDGVVDLKNTYTENQHLKERLEELAQLESEVADLKKENKDLKESLDITDSIRDYDPLNASVISRNPTNWNDQVEIDKGSSDGVKPDMAVTTPSGLIGKVTTTGAKSATVELLTSSDVKNRVSAKVQGKENAFGIINGYDSDTKLLELKQLPYDMKFKKGQKVVTSGLGGKFPAGIFIGTIEKVETDKMGLSQTAFIKPGADMYDLNHVTVLKRSAEAGTTDDDTTSSDTTGGQGSHHHHHH”, the entry is “soluble”. As for “MPHPCLSCGACCAYFRVSFHWSEADPALGGNVPIELTEPLRIHERVMHGTSQSHPRCIALDAEIGYRSRCTIHERRPSVCAAVPASLEFGTRSQQCDTSRRAHGLHLLTEADWAGVTNTERNPLPNELEHHHHHH”, the entry is “soluble”; as for “MTSLLGGNFTEALHTVLSNQLNVMSQKTSDSEAPTTFSSSSSSDSPPYDPMSLVSAGISDQNGLMDMFKDGLFATLVPPTDVANSDTASSESPEPAAQSHEAAEETGGTEEQQAAALSLIQSFGTPIPSKFEDIESQFFSEATIRDLMPVLASVQGSPPHNQNQLSFGSTSSPSAWARNAGRKKSHPVWDFFKDMKDSTGAGGVICLHCSWSGDDRSPNNLRTHLKKFHSDDGIFNRFSEKLAKMARRKQQESTLVIDPSHSKDDSAFFEGSSGSDAPSTIDTTQLMALLEQSAAAAAAAAAASSSENPITSSLLKKDRTTTTTTEKELSPLTAARASEILFAAGMRPHKKTSEIWEHYKCLNEKQNVECIYCWKVLKRNDSSTKSMWGHMNAYHQDILRDGTTRKKVKRPANGLDFDETPTQPYVKRVRGGAGSSSSLPSMVKMDQKPMLDSMAFLQQLQQSGSLTEADFSSFANGSSLNFLDSLPKSSEVININSGFVKKEEMEEDTENHVEAASSSSSDERIKSETPDTYGSPNTSTTDQNEQLAAFVSSLSNSNPMMFAMLNAAGNSTSSAPAPPKSSTSQQRSSSPPSAHDTSNGSMSPSKVDKDPSSFSLSEGHCAAQLMSMALDLEMTMSYHKRRSEIELCFESNRTVDESQGAASRKVICLTDLGKEIKITERINGSVKDTELWVKTDFNQFHWAIRGKCQKSADASRVPPLVVKPRSSRRSPQPVRRRPPGPRDVSSPTHSFLMRWSFLCTL”, “not soluble”.
